Residue numbers refer to the chain shown, from its start. Numbers in names are those of the source.
Legend:
[1] = molecular target: T1, N-terminally Flag-tagged POLD1 (catalytic subunit of human DNA polymerase delta), wild type (human, UniProt P28340 1-1107); assay: pull-down; Flag-pull down (Flag-M2 agarose) from lysate of Sf9 cells co-expressing Flag-POLD1 variant, POLD2, POLD3, POLD4 and untagged PCNA; 50 mM Tris-HCl pH 8.0, 200 mM NaCl, 0.25% NP-40, 4°C; SDS-PAGE with protein stain; settings: partners not purified
T1 construct: DNA polymerase delta catalytic subunit POLD1/p125, human; also called p125; Flag-POLD1; source: Sf9 insect cells, baculovirus co-infection, in lysate; Flag-purified (Flag-M2 agarose, 3x Flag peptide elution); not shown: Flag, N-terminal, kept
T1 sequence (looked up): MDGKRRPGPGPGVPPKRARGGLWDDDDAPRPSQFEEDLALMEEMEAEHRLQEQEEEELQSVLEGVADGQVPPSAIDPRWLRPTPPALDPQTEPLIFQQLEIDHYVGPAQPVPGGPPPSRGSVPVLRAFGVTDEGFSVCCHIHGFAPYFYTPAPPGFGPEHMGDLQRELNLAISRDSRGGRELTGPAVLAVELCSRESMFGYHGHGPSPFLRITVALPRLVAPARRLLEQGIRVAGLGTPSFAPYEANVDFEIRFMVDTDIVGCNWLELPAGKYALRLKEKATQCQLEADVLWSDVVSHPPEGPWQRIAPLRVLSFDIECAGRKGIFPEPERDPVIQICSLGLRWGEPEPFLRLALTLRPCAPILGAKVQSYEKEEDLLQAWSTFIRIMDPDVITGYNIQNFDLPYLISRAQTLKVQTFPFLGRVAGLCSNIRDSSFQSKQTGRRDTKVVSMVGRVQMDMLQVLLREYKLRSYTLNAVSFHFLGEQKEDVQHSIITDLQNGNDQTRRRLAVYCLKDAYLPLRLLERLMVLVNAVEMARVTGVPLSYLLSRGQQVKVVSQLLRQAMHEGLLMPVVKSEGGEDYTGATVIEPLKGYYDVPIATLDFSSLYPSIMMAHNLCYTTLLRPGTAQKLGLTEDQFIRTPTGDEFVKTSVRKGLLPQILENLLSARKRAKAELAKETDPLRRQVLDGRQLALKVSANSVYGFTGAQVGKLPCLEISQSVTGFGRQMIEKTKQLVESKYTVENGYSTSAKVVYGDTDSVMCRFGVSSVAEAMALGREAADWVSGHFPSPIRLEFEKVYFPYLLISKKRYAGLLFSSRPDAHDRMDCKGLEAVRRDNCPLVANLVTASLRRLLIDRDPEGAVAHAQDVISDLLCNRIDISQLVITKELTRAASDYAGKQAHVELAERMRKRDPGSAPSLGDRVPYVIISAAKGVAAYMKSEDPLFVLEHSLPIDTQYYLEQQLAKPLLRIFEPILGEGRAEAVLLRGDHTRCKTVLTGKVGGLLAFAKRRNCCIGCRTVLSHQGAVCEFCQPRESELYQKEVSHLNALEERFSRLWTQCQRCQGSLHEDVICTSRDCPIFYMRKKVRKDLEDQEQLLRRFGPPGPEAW

[2] = molecular target: T2, N-terminally Flag-tagged POLD1 C1076S (human, UniProt P28340 1-1107, C1076S); assay: as above; settings: partners not purified
T2 construct: DNA polymerase delta catalytic subunit POLD1/p125, human; variant made by site-directed mutagenesis; also called CS; Pol δ-CS (bait subunit); source: Sf9 insect cells, baculovirus co-infection, in lysate; Flag-purified (Flag-M2 agarose, 3x Flag peptide elution); not shown: Flag, N-terminal, kept
T2 sequence (looked up): T1 sequence (looked up) with C1076S

B1: POLD3 (accessory subunit of human DNA polymerase delta), untagged (natural protein, UniProt Q15054 1-466, looked up)
chain: MADQLYLENIDEFVTDQNKIVTYKWLSYTLGVHVNQAKQMLYDYVERKRKENSGAQLHVTYLVSGSLIQNGHSCHKVAVVREDKLEAVKSKLAVTASIHVYSIQKAMLKDSGPLFNTDYDILKSNLQNCSKFSAIQCAAAVPRAPAESSSSSKKFEQSHLHMSSETQANNELTTNGHGPPASKQVSQQPKGIMGMFASKAAAKTQETNKETKTEAKEVTNASAAGNKAPGKGNMMSNFFGKAAMNKFKVNLDSEQAVKEEKIVEQPTVSVTEPKLATPAGLKKSSKKAEPVKVLQKEKKRGKRVALSDDETKETENMRKKRRRIKLPESDSSEDEVFPDSPGAYEAESPSPPPPPSPPLEPVPKTEPEPPSVKSSSGENKRKRKRVLKSKTYLDGEGCIVTEKVYESESCTDSEEELNMKTSSVHRPPAMTVKKEPREERKGPKKGTAALGKANRQVSITGFFQRK
notes: DNA polymerase delta subunit 3 POLD3/p66, human; Expressed from a cassette with self-cleaving T2A peptides; T2A remnants probably stay on its ends and differ between the two cassettes (my surmise); also called p66; source: Sf9 insect cells, baculovirus co-infection (POLD2-T2A-POLD3-T2A-POLD4 or POLD2-T2A-POLD3 cassette), in lysate; co-purified with Flag-POLD1
binding result [1]: binds
binding result [2]: binds

B2: POLD2 (accessory subunit of human DNA polymerase delta), untagged (natural protein)
chain: not shown
notes: DNA polymerase delta subunit 2 POLD2/p50, human; Expressed from a cassette with self-cleaving T2A peptides; A T2A remnant probably stays on its C-terminus (my surmise); also called p50; source: Sf9 insect cells, baculovirus co-infection (POLD2-T2A-POLD3-T2A-POLD4 or POLD2-T2A-POLD3 cassette), in lysate; co-purified with Flag-POLD1
binding result [2]: binds

B3: POLD4 (accessory subunit of human DNA polymerase delta), untagged (natural protein, UniProt Q9HCU8 1-107, looked up)
chain: MGRKRLITDSYPVVKRREGPAGHSKGELAPELGEEPQPRDEEEAELELLRQFDLAWQYGPCTGITRLQRWCRAKQMGLEPPPEVWQVLKTHPGDPRFQCSLWHLYPL
notes: DNA polymerase delta subunit 4 POLD4/p12, human; Expressed from a cassette with self-cleaving T2A peptides; A residue of the T2A probably stays on its N-terminus (my surmise); also called p12; source: Sf9 insect cells, baculovirus co-infection (POLD2-T2A-POLD3-T2A-POLD4 cassette), in lysate; co-purified with Flag-POLD1
binding result [1]: binds
binding result [2]: binds
